Test results as given in patent publication US6358728B1, “Mutations in nucleic acid molecules encoding 11-CIS retinol dehydrogenase, the mutated proteins, and uses thereof” (The President & Fellows of Havard College, priority 1999, dated 2002).

T1: wild type 11-cis retinol dehydrogenase (Homo sapiens, UniProt Q92781)
T1 construct: expressed in transfected cells; host or cells: COS-1 cells (microsomes), vector pSG5
T1 sequence (Q92781 1-318): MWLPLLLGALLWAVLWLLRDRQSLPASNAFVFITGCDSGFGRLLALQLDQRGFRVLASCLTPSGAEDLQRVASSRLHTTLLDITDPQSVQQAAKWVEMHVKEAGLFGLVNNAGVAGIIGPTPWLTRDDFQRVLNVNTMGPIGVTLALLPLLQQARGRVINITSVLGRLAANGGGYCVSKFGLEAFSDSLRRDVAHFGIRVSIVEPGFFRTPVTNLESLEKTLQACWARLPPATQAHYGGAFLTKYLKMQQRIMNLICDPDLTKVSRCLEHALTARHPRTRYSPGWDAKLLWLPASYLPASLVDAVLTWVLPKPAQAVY

T2: 11-cis retinol dehydrogenase (RDH5) (Homo sapiens, UniProt Q92781)
T2 construct: expressed in transfected cells; host or cells: COS-1 cells (microsomes), vector pSG5
T2 sequence (Q92781 1-318): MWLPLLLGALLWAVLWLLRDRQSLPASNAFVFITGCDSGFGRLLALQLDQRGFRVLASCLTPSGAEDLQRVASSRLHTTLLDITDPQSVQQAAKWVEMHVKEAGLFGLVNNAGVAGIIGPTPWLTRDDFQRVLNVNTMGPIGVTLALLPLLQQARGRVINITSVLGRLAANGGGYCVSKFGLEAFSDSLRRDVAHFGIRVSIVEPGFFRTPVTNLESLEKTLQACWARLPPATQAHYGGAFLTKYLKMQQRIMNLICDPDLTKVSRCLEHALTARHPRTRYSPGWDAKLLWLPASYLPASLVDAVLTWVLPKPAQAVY

B1: wild type enzyme: wild type human 11-cis retinol dehydrogenase (RDH5) expressed in COS-1 cells (protein, UniProt Q92781 1-318, looked up)
Retinol dehydrogenase 5: MWLPLLLGALLWAVLWLLRDRQSLPASNAFVFITGCDSGFGRLLALQLDQRGFRVLASCLTPSGAEDLQRVASSRLHTTLLDITDPQSVQQAAKWVEMHVKEAGLFGLVNNAGVAGIIGPTPWLTRDDFQRVLNVNTMGPIGVTLALLPLLQQARGRVINITSVLGRLAANGGGYCVSKFGLEAFSDSLRRDVAHFGIRVSIVEPGFFRTPVTNLESLEKTLQACWARLPPATQAHYGGAFLTKYLKMQQRIMNLICDPDLTKVSRCLEHALTARHPRTRYSPGWDAKLLWLPASYLPASLVDAVLTWVLPKPAQAVY
B2: Gly238Trp mutant: mutant human 11-cis retinol dehydrogenase (RDH5), Gly to Trp at amino acid 238 (protein, UniProt Q92781 1-318, looked up, variant G238W)
Retinol dehydrogenase 5: MWLPLLLGALLWAVLWLLRDRQSLPASNAFVFITGCDSGFGRLLALQLDQRGFRVLASCLTPSGAEDLQRVASSRLHTTLLDITDPQSVQQAAKWVEMHVKEAGLFGLVNNAGVAGIIGPTPWLTRDDFQRVLNVNTMGPIGVTLALLPLLQQARGRVINITSVLGRLAANGGGYCVSKFGLEAFSDSLRRDVAHFGIRVSIVEPGFFRTPVTNLESLEKTLQACWARLPPATQAHYWGAFLTKYLKMQQRIMNLICDPDLTKVSRCLEHALTARHPRTRYSPGWDAKLLWLPASYLPASLVDAVLTWVLPKPAQAVY
B3: Ser73Phe mutant: mutant human 11-cis retinol dehydrogenase (RDH5), Ser to Phe at amino acid 73 (protein, UniProt Q92781 1-318, looked up, variant S73F)
Retinol dehydrogenase 5: MWLPLLLGALLWAVLWLLRDRQSLPASNAFVFITGCDSGFGRLLALQLDQRGFRVLASCLTPSGAEDLQRVAFSRLHTTLLDITDPQSVQQAAKWVEMHVKEAGLFGLVNNAGVAGIIGPTPWLTRDDFQRVLNVNTMGPIGVTLALLPLLQQARGRVINITSVLGRLAANGGGYCVSKFGLEAFSDSLRRDVAHFGIRVSIVEPGFFRTPVTNLESLEKTLQACWARLPPATQAHYGGAFLTKYLKMQQRIMNLICDPDLTKVSRCLEHALTARHPRTRYSPGWDAKLLWLPASYLPASLVDAVLTWVLPKPAQAVY

Experiments:
[1] = molecular target: T1, wild type 11-cis retinol dehydrogenase; assay: Km and Vmax of wild type enzyme, oxidation of 11-cis retinol to 11-cis retinal by microsomes, HPLC; format: biochemical; settings: 2 μg microsomal protein, 8-minute incubations, 5 mM NAD, 37° C., Lineweaver-Burk, average of duplicates 7.1 and 9.6
Experimental: To monitor the ability of the wild-type and mutant enzymes to catalyze the oxidation of 11-cis retinol to 11-cis retinal, 11-cis retinol, which had been synthesized by reduction of 11-cis retinal with NaBH4 and stored under argon at −80° C., was added to reaction mixtures containing microsomes from the transfected cells.
The enzyme reactions, in a total volume of 100 μp were carried out in 50 mM Tris-HCl buffer pH7.5 containing 5 mM NAD or NADH, […] 11-cis retinol, or 11-cis retinal, and microsomes at 37° C. All manipulations of retinoids were performed in dim light. The reactions were stopped by putting the tubes on ice, and the retinoids were immediately extracted with 200 μl n-hexane. Subsequently, 75 μl aliquots were analyzed by reverse-phase HPLC using a C18 column. The mobile phase was acetonitrile/water (85/15, v/v), and the column was eluted under isocratic conditions at a flow rate of 1 ml/min. 11-cis retinol and 11-cis retinal eluted at 12.0-12.2 and 14.0-14.3 minutes, respectively. Retinoids were quantified at 320 and 370 nm. […] Formed 11-cis retinal was quantified in the HPLC analyses, and the Km and Vmax values were calculated from Lineweaver-Burk plots. The values were compensated for the extraction efficiency (60-70%, as determined experimentally).

[2] = system: 11-cis retinol dehydrogenase (RDH5); assay: Relative activities of wild type and mutant enzymes, oxidation of 11-cis retinol (forward reaction), microsomes, HPLC; format: biochemical, human; settings: for ability to catalyze oxidation of 11-cis-retinol to 11-cis-retinal: 10 minutes at 37° C., 5 mM NAD, 50 μM 11-cis-retinol, mutant 20 μg, wild type 2 μg microsomes; for fold activity above background activity (mock transformants) / fold less activity than wild type enzyme: after 40 minutes incubation
Experimental: (§1) The relative activities of the wild type and mutant enzymes were then determined. To do this, microsomes containing a mutant enzyme (20 μg), or wild type enzyme(2 μg) together with 18 μg of microsomal protein from mock-transfected cells, to standardize the experimental conditions, or no enzyme were combined with 50 mM Tris-HCl buffer (pH 7.5), containing 5 mM of NAD, and 50 μM 11-cis-retinol (forward, oxidation reaction) or 5 mM NADH and 50 μM 11-cis-retinal (reverse, reduction reaction) in a total volume of 100 μl. 50 μM 11-cis retinol is approximately a seven-fold higher substrate concentration than the estimated Km value for the wild-type enzyme. The mixtures were incubated for 10 minutes at 37° C., after which the reactions were stopped by putting the mixtures on ice. Retinoids were extracted immediately with 200 μl of n-hexane. Subsequently, 75 μl aliquots were analyzed via reversed phase HPLC using a C18 column. The mobile phase was acetonitrile/water (85:15 v/v), and the column was eluted under isocratic conditions at a flow rate of 1 ml/min. The 11-cis-retinol eluted at 12.0-12.2 minutes, and 11-cis-retinal at 14.0-14.3 minutes. Retinoids were quantified at 320 (retinol) and 370 (retinal) nm. Relative activities of wild-type and mutant enzymes were calculated as the ratio of formed 11-cis retinal by transfected versus mock-transfected microsomes. The results were normalized for the total extracted retinoid content from each reaction.
The Gly238Trp mutant was tested further, to determine if it had any activity, by incubating for 20 and 40 minute periods before extracting retinoids. Wild type and Ser73Phe mutant were used as controls.

[3] = molecular target: T2, 11-cis retinol dehydrogenase (RDH5); assay: Relative activities of wild type and mutant enzymes, reduction of 11-cis retinal (reverse reaction), microsomes, HPLC; format: biochemical; settings: 10 minutes at 37° C., 5 mM NADH, 50 μM 11-cis-retinal
Experimental: as §1, with “The results were normalized for the total extracted retinoid content from each reaction.” left out

Molecule	Vmax [1]	ability to catalyze oxidation of 11-cis-retinol to 11-cis-retinal [2]	fold activity above background activity (mock transformants) [2]	ability to catalyze reduction of 11-cis-retinal to 11-cis-retinol (reverse reaction) [3]	fold less activity than wild type enzyme [2]
CC1=C(/C=C/C(C)=C/C=C\C(C)=C\CO)C(C)(C)CCC1 [11-cis retinol]	8.4 nmol/mg protein/minute				
B1		exhibited the expected ability to catalyze the oxidation	42.9 ± 4.5 fold	catalyzed the reverse reaction	
B2		no activity above background level	2.2±0.14 fold		approximately 19 fold
B3		residual activity	9.1±1 fold		approximately 5 fold
